Substrate in assay [1]: NP of B/Brisbane/60/2008(fluB) (influenza B virus B/Brisbane/60/2008)
Briefly: ELISA on virus-infected fixed MDCK cells.

Substrate in assay [2]: NP of A/Brisbane/59/2007(H1N1/H1B) (influenza A virus A/Brisbane/59/2007 (H1N1))
Briefly: sandwich ELISA, capture IgG; NP of lysed virus titrated; HRP-NP17 detection.

Substrate in assay [3]: NP of A/Brisbane/59/2007(H1N1/H1B) (influenza A virus A/Brisbane/59/2007 (H1N1))
In words: ELISA on virus-infected fixed MDCK cells.

Substrate in assay [4]: NP of A/Brisbane/59/2007(H1N1/H1B) (influenza A virus A/Brisbane/59/2007 (H1N1))
In words: sandwich ELISA, capture IgG; NP of lysed virus titrated; HRP-NP16 detection.

EC50 data for 15 molecules are collected here from patent US20230212554A1.

B1: NP20 (antibody, V domains shown)
VH: EVQLVESGGGLVQPGGSLRLSCAASGFTINGYSIHWVRQAPGKGLEWVASIGPYGGFTYYADSVKGRFTISADTSKNTAYLQMNSLRAEDTAVYYCAGFGFYYWGQGTLVTVSS
VL: DIQMTQSPSSLSASVGDRVTITCRASQDVGYGVAWYQQKPGKAPKLLISGASGLYSGVPSRFSGSGSGTDFTLTISSLQPEDFATYYCQQYSSFPLTFGQGTKVEIKR
For B1, the EC50 in assay [1] turned out to be 4.88 nM.

B2: NP16 (antibody, V domains shown)
VH: EVQLVESGGGLVQPGGSLRLSCAASGFTIGNSGIHWVRQAPGKGLEWVAWIGPYWGFTSYADSVKGRFTISADTSKNTAYLQMNSLRAEDTAVYYCARFGNHWHLFMDYWGQGTLVTVSS
VL: DIQMTQSPSSLSASVGDRVTITCRASQDVGSYVAWYQQKPGKAPKLLISWTTGLYSGVPSRFSGSGSGTDFTLTISSLQPEDFATYYCQQYFSYPVTFGQGTKVEIKR
In the case of B2, the EC50 was 0.89 nM in assay [2], 0.21 nM in assay [3] and 4.74 nM in assay [4].

B3: NP7 (antibody, V domains shown)
VH: EVQLVESGGGLVQPGGSLRLSCAASGFTISNGGIHWVRQAPGKGLEWVAGIGPYGGFTSYADSVKGRFTISADTSKNTAYLQMNSLRAEDTAVYYCARFYSNYYGYHGVMDYWGQGTLVTVSS
VL: DIQMTQSPSSLSASVGDRVTITCRASQDVFGWVAWYQQKPGKAPKLLISYSASLYSGVPSRFSGSGSGTDFTLTISSLQPEDFATYYCQQYFNYPLTFGQGTKVEIKR
For B3, the EC50 turned out to be 4.15 nM in assay [2] and 4.13 nM in assay [4].

B4: NP19 (antibody, V domains shown)
VH: EVQLVESGGGLVQPGGSLRLSCAASGFTISSWGIHWVRQAPGKGLEWVAGIGPFWGYTSYADSVKGRFTISADTSKNTAYLQMNSLRAEDTAVYYCARFGVDNYGYMDYWGQGTLVTVSS
VL: DIQMTQSPSSLSASVGDRVTITCRASQDVSGWVAWYQQKPGKAPKLLISWSTGLYSGVPSRFSGSGSGTDFTLTISSLQPEDFATYYCQQYFNFPVTFGQGTKVEIKR
In the case of B4, the EC50 in assay [2] was determined as 0.812 nM; in assay [3], 0.295 nM; in assay [4], 3.37 nM.

B5: NP22 (antibody, V domains shown)
VH: EVQLVESGGGLVQPGGSLRLSCAASGFTISDWSIHWVRQAPGKGLEWVAGIWPYWGSTSYADSVKGRFTISADTSKNTAYLQMNSLRAEDTAVYYCARGFYSWFDYWGQGTLVTVSS
VL: DIQMTQSPSSLSASVGDRVTITCRASQDVFSWVAWYQQKPGKAPKLLISSASSLYSGVPSRFSGSGSGTDFTLTISSLQPEDFATYYCQQSWDYPITFGQGTKVEIKR
Turning to B5, the half-maximal effective concentration (EC50) in assay [2] is 102 nM; in assay [3], 7.11 nM; in assay [1], 3.92 nM; in assay [4], 59.4 nM.

B6: NP15 (antibody, V domains shown)
VH: EVQLVESGGGLVQPGGSLRLSCAASGFTISNWYIHWVRQAPGKGLEWVAGIGPYGGSTYYADSVKGRFTISADTSKNTAYLQMNSLRAEDTAVYYCARFHWDHLHGMDYWGQGTLVTVSS
VL: DIQMTQSPSSLSASVGDRVTITCRASQDVDNNVAWYQQKPGKAPKLLISYSTGLYSGVPSRFSGSGSGTDFTLTISSLQPEDFATYYCQQYWNYPITFGQGTKVEIKR
As for B6, the EC50 in assay [2] came to 0.926 nM; in assay [3], 0.668 nM; in assay [4], 4.61 nM.

B7: NP21 (antibody, V domains shown)
VH: EVQLVESGGGLVQPGGSLRLSCAASGFTINGYGIHWVRQAPGKGLEWVAGIWPYGGSTFYADSVKGRFTISADTSKNTAYLQMNSLRAEDTAVYYCARFYNNHGGIMDYWGQGTLVTVSS
VL: DIQMTQSPSSLSASVGDRVTITCRASQDVYFYVAWYQQKPGKAPKLLIYGSRWLYSGVPSRFSGSGSGTDFTLTISSLQPEDFATYYCQQYSNFPVTFGQGTKVEIKR
On to B7, for which the EC50 was determined as 0.81 nM in assay [2], 4.6 nM in assay [3] and 2.71 nM in assay [4].

B8: NP25 (antibody, V domains shown)
VH: EVQLVESGGGLVQPGGSLRLSCAASGFTIGGGFIHWVRQAPGKGLEWVASIWPYWGFTYYADSVKGRFTISADTSKNTAYLQMNSLRAEDTAVYYCARGSYGYSDYWGQGTLVTVSS
VL: DIQMTQSPSSLSASVGDRVTITCRAGQDVSSGVAWYQQKPGKAPKLLISWTSFLYSGVPSRFSGSGSGTDFTLTISSLQPEDFATYYCQQYYDYPITFGQGTKVEIKR
For the molecule B8, the EC50 in assay [3] turned out to be 4.83 nM; in assay [1] it was 2.17 nM.

B9: NP18 (antibody, V domains shown)
VH: EVQLVESGGGLVQPGGSLRLSCAASGFTISGGGIHWVRQAPGKGLEWVASIWPSWGSTSYADSVKGRFTISADTSKNTAYLQMNSLRAEDTAVYYCARFHNGGFLVMDYWGQGTLVTVSS
VL: DIQMTQSSSSLSASVGDRVTITCRASQDVGYYVAWYQQKPGKAPKLLIYGPRFLYSGVPSRFSGSGSGTDFTLTISSLQPEDFATYYCQQYSNWPITFGQGTKVEIKR
Consider B9, for which the results for the EC50 in assay [2] and in assay [3] were 66.4 nM and 7 nM, respectively.

B10: NP6 (antibody, V domains shown)
VH: EVQLVESGGGLVQPGGSLRLSCAASGFTINDGSIHWVRQAPGKGLEWVAGIGPFGGFTYYADSVKGRFTISADTSKNTAYLQMNSLRAEDTAVYYCARSGYSGSFDYWGQGTLVTVSS
VL: DIQMTQSPSSLSASVGDRVTITCRASQDVYFGVAWYQQKPGKAPKLLIYGTSYLYSGVPSRFSGSGSGTDFTLTISSLQPEDFATYYCQQFSNWPITFGQGTKVEIKR
As to B10, in assay [4], the EC50 turned out to be 78.3 nM.

B11: NP5 (antibody, V domains shown)
VH: EVQLVESGGGLVQPGGSLRLSCAASGFTISNGSIHWVRQAPGKGLEWVAGIWPSGGSTSYADSVKGRFTISADTINNSAYLQMNSLRAEDTAVYYCARWNYWGQGTLVTVSS
VL: DIQMTQSPSSLSASVGDRVTITCRASQDVGWSVAWYQQKPGKAPKLLIYGSRWLYSGVPSRFSGSGSGTDFTLTISSLQPEDFATYYCQQGYNGPLTFGQGTKVEIKR
As for B11, the EC50 in assay [2] amounted to 1.82 nM; in assay [4], 4.02 nM.

B12: NP2 (antibody, V domains shown)
VH: EVQLVESGGGLVQPGGSLRLSCAASGFTIGGGGIHWVRQAPGKGLEWVAGIWPYWGYTFYADSVKGRFTISADTSKNTAYLQMNSLRAEDTAVYYCARFWHGNLDVMDYWGQGTLVTVSS
VL: DIQMTQSPSSLSASVGDRVTITCRASQDVYGYVAWYQQKPGKAPKLLIYGAAGLYSGVPSRFSGSGSGTDFTLTISSLQPEDFATYYCQQYSNFPLTFGQGTKVEIKR
Take B12: in assay [1], the EC50 is 4.89 nM.

B13: NP17 (antibody, V domains shown)
VH: EVQLVESGGGLVQPGGSLRLSCAASGFTISGGSIHWVRQAPGKGLEWVASIWPFGGSTFYADSVKGRFTISADTSKNTAYLQMNSLRAEDTAVYYCARFGHGHNVIMDYWGQGTLVTVSS
VL: DIQMTQSPSSLSASVGDRVTITCRASQDVGYSVAWYQQKPGKAPKLLISSPGGLYSGVPSRFSGSGSGTDFTLTISSLQPEDFATYYCQQYYDYPVTFGQGTKVEIKR
For the molecule B13, the EC50 in assay [2] turned out to be 2.22 nM; in assay [4], 4.08 nM.

B14: NP3 (antibody, V domains shown)
VH: EVQLVESGGGLVQPGGSLRLSCAASGFTISNYGIHWVRQAPGKGLEWVAGIWPFGGFTSYADSVKGRFTISADTSKNTAYLQMNSLRAEDTAVYYCARFHWNDHGYMDYWGQGTLVTVSS
VL: DIQMTQSPSSLSASVGDRVTITCRASQDVGWYVAWYQQKPGKAPKLLIYSTTGLYSGVPSRFSGSGSGTDFTLTISSLQPEDFATYYCQQYYNYPITFGQGTKVEIKR
With B14, the EC50 in assay [2] came out at 1.04 nM; in assay [3], 0.521 nM; in assay [4], 2.36 nM.

B15: NP24 (antibody, V domains shown)
VH: EVQLVESGGGLVQPGGSLRLSCAASGFTIDDWYIHWVRQAPGKGLEWVAGIGPYGGFTYYADSVKGRFTISADTSKNTAYLQMNSLRAEDTAVYYCARGYYGSFDYWGQGTLVTVSS
VL: DIQMTQSPSSLSASVGDRVTITCRASQDVGSSVAWYQQKPGKAPKLLIFYTSSLYSGVPSRFSGSGSGTDFTLTISSLQPEDFATYYCQQGWDSPVTFGQGTKVEIKR
As to B15, the EC50 in assay [1] amounted to 3.17 nM.
